Laboratory results as given in FireProtDB (doi:10.1074/jbc.m707838200).
Several values for one entry are separate records, joined by “and”; a condition that tells them apart may be missing. Identical values can stand only once.

Settings: Staphylococcus aureus; pH 7; 25 °C; Thermal; CD; Hepes-NaOH 20 mM; NaCl 170 mM; reversible: Yes; whole UniProt chain shown

B1: wild type, Q9EYL5 (protein)
chain: MTKKLLTLFIVSMLILTACGKKESATTSSKNGKPLVVVYGDYKCPYCKELDEKVMPKLRKNYIDNHKVEYQFVNLAFLGKDSIVGSRASHAVLMYAPKSFLDFQKQLFAAQQDENKEWLTKELLDKHIKQLHLDKETENKIIKDYKTKDSKSWKAAEKDKKIAKDNHIKTTPTAFINGEKVEDPYDYESYEKLLKDKIK
unfolding free energy: 7.19 kcal/mol and 7.14 kcal/mol
